# Test results reported in patent US20220211817A1, “CONTROLLED-RELEASE CNP AGONISTS WITH LOW NPR-C BINDING” (ASCENDIS PHARMA GROWTH DISORDERS A/S, priority 2016, published 2022).
# Read-outs that look alike come from different tables or passages of the source. Bridge positions count the residues as written; N and C are the ends. Side chains are listed from the residue outwards. Ends that are not written are not given here. reversible linker = not defined here
# Tests used:
# [1] = cynomolgus monkey, in vivo, sc
# [2] = Pharmacokinetic study of transient conjugates 10f and 11i in cynomolgus monkeys; conditions: single subcutaneous, 0.146 mg CNP-38 eq/kg
# recombinant human NEP = biological target: T1, recombinant human NEP (Homo sapiens, UniProt P08473); test: Digest of CNP variants by Neutral Endopeptidase in vitro; format: in vitro ADME; conditions: 100 μg CNP equivalents/mL, pH 7.4, 37° C., up to 4 days, normalized to mean CNP-34 or CNP-38 half life
# T1 construct: purchased Enzo Life Sciences GmbH, Lörrach, Germany
# Description: Samples were taken at different time intervals. […] The resulting reaction products were assigned using HPLC-MS.
# Male Crl:CD1(ICR) mice = test: Evaluation of cardiovascular effects in the conscious telemetered mouse (subcutaneous administration); format: in vivo; conditions: 800 μg CNP-38 (eq)/kg subcutaneous; for change in MAP at the 5, 15, and 30 min post dose sampling time points (in words): compared to predose
# Protocol: Male Crl:CD1(ICR) mice (age range 8-13 weeks and body weight range 27.3-35.6 g at start of dosing) were surgically implanted with a TA11PA-C10 telemetry transmitter (Data Sciences International (DSI)) in the carotid artery. The body of the transmitter was placed subcutaneously in the lateral flank of the mouse. The mice were dosed subcutaneously in a latin square crossover design with at least 72 hours between dosing occasions. […] At least four mice were included at each dose level. […] Each time point was presented as the average value of five minute's recording prior to the time point. The monitoring period was selected to cover exposure to the test items both prior to and after Tmax.
# [3] = Pharmacokinetic profile of conjugate 11i after subcutaneous single-dose administration to cynomolgus monkeys; conditions: single s.c. 40 μg CNP-38 eq/kg
# Protocol: As internal standard deuterated CNP-38 conjugate was used.
# 200 μL of the supernatant were transferred into a new well-plate and evaporated to dryness (under a gentle nitrogen stream at 35° C.). […] After 3 hours incubation at 37° C. […] 10 μL were injected into the UHPLC-MS system.
# healthy volunteers [4] = conditions: CNP injection; cited from earlier work
# [5] = after iv administration; cited from earlier work
# healthy volunteers [6] = conditions: Phase 1 study; cited from earlier work
# [7] = Pharmacokinetic profile of CNP-38 after subcutaneous single-dose administration to cynomolgus monkeys; conditions: single s.c. 40 μg/kg
# Protocol: This study was performed in order to test the pharmacokinetics of CNP-38 after subcutaneous (s.c.) administration in cynomolgus monkeys. Three male monkeys (2-4 years old, 3-5 kg) received a single s.c. injection at a dose of 40 μg/kg of CNP-38.
# Method: Plasma levels of CNP were analysed using a commercially available competitive radioimmuno-assay (RK-012-03, Phoenix Pharmaceuticals, CA). The assay was applied essentially as described by the manufacturer.
# A few changes to the supplied assay protocol were made. These changes included using in-house CNP calibrant and QC samples to secure consistency between assay runs.
# [8] = Pharmacokinetic study of permanent conjugate 12 g in cynomolgus monkeys; format: in vivo
# Protocol: As internal standard deuterated CNP-38 peptide was used.
# After 4 hours incubation at 37° C. […] The eluates were transferred into vials. 10 μL were injected into the UPLC-MS system.
# T1 sequence (P08473 whole entry): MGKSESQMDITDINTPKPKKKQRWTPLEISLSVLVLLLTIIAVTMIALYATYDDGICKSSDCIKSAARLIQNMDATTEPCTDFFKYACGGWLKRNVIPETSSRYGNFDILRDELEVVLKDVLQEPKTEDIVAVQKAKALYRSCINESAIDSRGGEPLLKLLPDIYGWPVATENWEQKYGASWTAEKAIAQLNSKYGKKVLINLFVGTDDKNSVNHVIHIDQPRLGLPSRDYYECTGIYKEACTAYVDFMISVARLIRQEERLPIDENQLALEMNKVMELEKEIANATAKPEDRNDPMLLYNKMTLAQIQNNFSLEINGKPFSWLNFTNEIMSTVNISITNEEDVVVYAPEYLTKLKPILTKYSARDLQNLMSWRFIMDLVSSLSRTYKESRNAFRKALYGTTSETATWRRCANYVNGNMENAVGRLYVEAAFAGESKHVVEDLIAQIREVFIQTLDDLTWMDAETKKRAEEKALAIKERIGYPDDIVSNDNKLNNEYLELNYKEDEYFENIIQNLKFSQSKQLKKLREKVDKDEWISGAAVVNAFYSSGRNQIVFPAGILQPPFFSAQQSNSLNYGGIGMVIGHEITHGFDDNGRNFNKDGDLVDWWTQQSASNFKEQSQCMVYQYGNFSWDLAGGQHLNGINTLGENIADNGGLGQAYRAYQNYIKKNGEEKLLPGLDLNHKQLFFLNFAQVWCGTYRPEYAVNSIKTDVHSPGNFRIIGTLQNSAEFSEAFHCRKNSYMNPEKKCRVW
compound,measurement,setting,value
"Reversible Lys26 CNP-38 PEG2×20 kDa Conjugate (LQEHPNARKYKGANKKGLSKGCFGLKLDRIGSMSGLGC; not fully specified (residue 26); ends and bridges not checked; also: reversible linker structure not given here; UniProt P23582 89-126, looked up, fragment) [Compound 10f]",dose site reactions,[1],No dose site reactions were observed
same,tolerability of dose administrations,[2],well tolerated
"Permanent Lys26 CNP-38 PEG 5 kDa Conjugate (LQEHPNARKYKGANKKGLSKGCFGLK(PEG 5 kDa)LDRIGSMSGLGC; cysteine pairing not given here; UniProt P23582 89-126, looked up, fragment) [Compound 19e]",half life norm.,recombinant human NEP,62.76 h
"Reversible Lys26 CNP-38 PEG4×10 kDa Conjugate (LQEHPNARKYKGANKKGLSKGCFGLK([reversible linker-PEG 4×10 kDa])LDRIGSMSGLGC; ends and bridges not checked; also: reversible linker structure not given here; UniProt P23582 89-126, looked up, fragment) [Compound 11i]",dose site reactions,[1],No dose site reactions were observed
same,terminal half life,[1],72 to 96 h
same,HR (heart rate),Male Crl:CD1(ICR) mice,not impacted
same,MAP 5 min post dose (mean ± SD),Male Crl:CD1(ICR) mice,122.8 ± 5.9 mmHg
same,MAP 15 min post dose (mean ± SD),Male Crl:CD1(ICR) mice,121.5 ± 7.5 mmHg
same,MAP 30 min post dose (mean ± SD),Male Crl:CD1(ICR) mice,111.5 ± 13.7 mmHg
same,blood pressure (conclusion),Male Crl:CD1(ICR) mice,did not decrease blood pressure
same,"change in MAP at the 5, 15, and 30 min post dose sampling time points (in words)",Male Crl:CD1(ICR) mice,same physiological increase in MAP
same,tolerability of dose administrations,[2],well tolerated
same,tolerability,[3],well tolerated
CNP: C-type natriuretic peptide as named in the background section,effect on blood pressure and heart rate,healthy volunteers [4],transient but significant decrease in both systolic and diastolic blood pressure with a significant increase in heart rate
same,half-life,[5],2 min
"BMN-111: a CNP variant with increased NEP resistance in development for the treatment of achondroplasia (PGQEHPNARKYKGANKKGLSKGCFGLKLDRIGSMSGLGC; disulfide 23-39; chains of the INN, looked up)",haemodynamic effect,healthy volunteers [6],mild hypotension
"CC[C@H](C)[C@@H]1NC(=O)[C@H](CCCNC(=N)N)NC(=O)[C@H](CC(=O)O)NC(=O)[C@H](CC(C)C)NC(=O)[C@H](CCCCN)NC(=O)[C@H](CC(C)C)NC(=O)CNC(=O)[C@H](Cc2ccccc2)NC(=O)[C@@H](NC(=O)CNC(=O)[C@H](CCCCN)NC(=O)[C@H](CO)NC(=O)[C@H](CC(C)C)NC(=O)CNC(=O)[C@H](CCCCN)NC(=O)[C@H](CCCCN)NC(=O)[C@H](CC(N)=O)NC(=O)[C@H](C)NC(=O)CNC(=O)[C@H](CCCCN)NC(=O)[C@H](Cc2ccc(O)cc2)NC(=O)[C@H](CCCCN)NC(=O)[C@H](CCCNC(=N)N)NC(=O)[C@H](C)NC(=O)[C@H](CC(N)=O)NC(=O)[C@@H]2CCCN2C(=O)[C@H](Cc2c[nH]cn2)NC(=O)[C@H](CCC(=O)O)NC(=O)[C@H](CCC(N)=O)NC(=O)[C@@H](N)CC(C)C)CSSC[C@@H](C(=O)O)NC(=O)CNC(=O)[C@H](CC(C)C)NC(=O)CNC(=O)[C@H](CO)NC(=O)[C@H](CCSC)NC(=O)[C@H](CO)NC(=O)CNC1=O [CNP-38, reference compound]",tolerability,[7],well tolerated
same,HR (heart rate),Male Crl:CD1(ICR) mice,not impacted
same,MAP 5 min post dose (mean ± SD),Male Crl:CD1(ICR) mice,102.0 ± 7.5 mmHg
same,MAP 15 min post dose (mean ± SD),Male Crl:CD1(ICR) mice,89.5 ± 29.4 mmHg
same,MAP 30 min post dose (mean ± SD),Male Crl:CD1(ICR) mice,99.5 ± 25.2 mmHg
same,"change in MAP at the 5, 15, and 30 min post dose sampling time points (in words)",Male Crl:CD1(ICR) mice,significant decrease in MAP
same,MAP predose (mean ± SD),Male Crl:CD1(ICR) mice; predose,106.8 ± 13.4 mmHg
Permanent Lys22 CNP-34 PEG 5 kDa Conjugate [Compound 18e],half life norm.,recombinant human NEP,38.87 h
"Permanent N-Terminal CNP-38 PEG 5 kDa Conjugate ({PEG 5 kDa}-LQEHPNARKYKGANKKGLSKGCFGLKLDRIGSMSGLGC; disulfide 22-38; also: permanent PEG attachment; UniProt P23582 89-126, looked up, fragment) [Compound 15e]",half life norm.,recombinant human NEP,Almost no proteolysis
Permanent Lys26 CNP-38 PEG4×10 kDa Conjugate [Compound 12g],half life norm.,recombinant human NEP,Almost no proteolysis
same,bioavailability,"[8]; cynomolgus monkey, in vivo",ca. 50%
same,dose site reactions,"[8]; cynomolgus monkey, in vivo",No dose site reactions were observed
same,half life time of CNP-38 content,"[8]; cynomolgus monkey, in vivo, iv",approx. 24 h
same,tolerability of dose administrations,"[8]; single intravenous or subcutaneous, 0.146 mg CNP-38 eq/kg",well tolerated
"Permanent Lys16 CNP-34 PEG 5 kDa Conjugate (PNARKYKGANKKGLSK(PEG 5 kDa)GCFGLKLDRIGSMSGLGC; cysteine pairing not given here; UniProt P23582 93-126, looked up, fragment) [Compound 17e]",half life norm.,recombinant human NEP,54.23 h
